B1: mRNA-splicing (parent)
chain: AGUUGCUGCUGGGAGCUCCAGCACAGUGAAAUGGACAGAAGGGCAGAGCAA

Variants of: B1
Test: exon inclusion enrichment index; higher = more inclusion; WT1 exon 5 minigene, HEK293

Row | Variant | exon inclusion enrichment index
1 | G5U G8U C9U A23U C24A | 0.0491
2 | G5U G8U C9U A23U C24G | 0.223
3 | G5U G8U C9U A23U C24U | 0.00337
4 | G5U G8U C9U A14C | 0.108
5 | G5U G8U C9U A14G | 0.0707
6 | G5U G8U C9U A14U | 0.0126
7 | G5U G8U C9U A23G C24A | 0.532
8 | G5U G8U C9U A23G C24U | 0.0193
9 | G5U G8U C9U A23G C24G | 0.604
10 | G5U G8U C9U A29U A30C | 0.0859
11 | G5U G8U C9U A29U A30G | 0.129
12 | G5U G8U C9U A29U A30U | 0.0146
13 | G5U G8U C9U A29C A30C | 0.344
14 | G5U G8U C9U A29C A30U | 0.0831
15 | G5U G8U C9U A29C A30G | 0.414
16 | G5U G8U C9U A31G U32G | 0.0767
17 | G5U G8U C9U A31G U32C | 0.678
18 | G5U G8U C9U A31G U32A | 1.22
19 | G5U C6G U7G G8U C9U | 0.0864
20 | G5U C6A U7C G8A U10A | 0.0713
21 | G5U C6A U7C G8A U10C | 1.56
22 | G5U G8U C9G | 0.267
23 | G5U G8U C9A | 0.194
24 | G5U G8U C9U | 0.16

Row | Variant | exon inclusion enrichment index
25 | G5U G8C C9G | 1.51
26 | G5U G8C C9A | 0.689
27 | G5U G8C C9U | 0.417
28 | G5U C6U U7A G8U C9U | 0.0321
29 | G5U C6U U7A G8U C9A | 0.0673
30 | G5U G8U C9U A29G A30U | 0.0242
31 | G5U G8U C9U A29G A30C | 0.035
32 | G5U G8U C9U A29G A30G | 0.0374
33 | G5U C6G U7C G8A U10C | 2.27
34 | G5U C6G U7C G8A U10A | 0.1
35 | G5U C6A U7C G8U C9U | 0.164
36 | G5U G8U C9G U10A | 0.128
37 | G5U G8U C9G U10C | 0.741
38 | G5U G8U C9G U10G | 0.108
39 | G5U G8U C9U A20G | 0.322
40 | G5U G8U C9U A20C | 0.124
41 | G5U G8U C9U A20U | 0.191
42 | G5U G8U C9U A31U U32G | 0.0359
43 | G5U G8U C9U A31U U32C | 0.282
44 | G5U G8U C9U A31U U32A | 0.00567
45 | G5U G8U C9U A25U G26U | 0.0927
46 | G5U G8U C9U A25U G26A | 0.176
47 | G5U G8U C9U A25U G26C | 0.219
48 | G5U C6U G8C C9U U10C | 0.672

Row | Variant | exon inclusion enrichment index
49 | G5U G8U C9U A35G C36A | 0.0301
50 | G5U G8U C9U A35G C36U | 0.0033
51 | G5U G8U C9U A35G C36G | 0.00476
52 | G5U C6U U7C U10C | 3.03
53 | G5U G8U C9U A35U C36G | 0.0125
54 | G5U G8U C9U A35U C36A | 0.00069
55 | G5U G8U C9U A35U C36U | 0.000565
56 | G5U C6A U7C C9A U10C | 2.8
57 | G5U C6A U7G C9A | 0.0473
58 | G5U G8U C9U A29C | 0.0814
59 | G5U G8U C9U A29G | 0.246
60 | G5U G8U C9U A29U | 0.0318
61 | G5U C6U G8U C9U | 0.0204
62 | G5U G8U C9U A35C C36U | 0.0048
63 | G5U G8U C9U A35C C36A | 0.0636
64 | G5U G8U C9U A35C C36G | 0.125
65 | G5U G8U C9U A37C G38A | 0.157
66 | G5U G8U C9U A37C G38U | 0.0543
67 | G5U G8U C9U A37C G38C | 0.175
68 | G5U G8U C9U A30U A31G | 0.15
69 | G5U G8U C9U A30U A31U | 0.0523
70 | G5U G8U C9U A30U A31C | 0.0725
71 | G5U G8U C9U A25C G26U | 0.328
72 | G5U G8U C9U A25C G26A | 0.504

Row | Variant | exon inclusion enrichment index
73 | G5U G8U C9U A25C G26C | 0.215
74 | G5U G8U C9U A14C G15A | 0.0209
75 | G5U G8U C9U A14C G15C | 0.0167
76 | G5U G8U C9U A14C G15U | 0.0169
77 | G5U G8U C9U A37U G38C | 0.0749
78 | G5U G8U C9U A37U G38U | 0.0252
79 | G5U G8U C9U A37U G38A | 0.0389
80 | G5U G8C | 1.34
81 | G5U G8U | 1.33
82 | G5U G8A | 1.23
83 | G5U G8U C9U A37G G38A | 0.184
84 | G5U G8U C9U A37G G38U | 0.0298
85 | G5U G8U C9U A37G G38C | 0.241
86 | G5U C6U U7C G8A U10A | 0.0434
87 | G5U C6U U7C G8A U10C | 1.85
88 | G5U G8U C9U A25G G26C | 0.74
89 | G5U G8U C9U A25G G26U | 0.38
90 | G5U G8U C9U A25G G26A | 0.765
91 | G5U G8U C9U A31C U32C | 0.544
92 | G5U G8U C9U A31C U32G | 0.188
93 | G5U G8U C9U A31C U32A | 0.077
94 | G5U C6G U7C G8U C9U | 0.349
95 | G5U G8C C9U U10C | 0.934
96 | G5U G8U C9U A37G | 0.303

Row | Variant | exon inclusion enrichment index
97 | G5U G8U C9U A37U | 0.104
98 | G5U G8U C9U A37C | 0.465
99 | G5U G8U C9U A20C G21U | 0.0336
100 | G5U G8U C9U A20C G21C | 0.0207
101 | G5U G8U C9U A20C G21A | 0.0355
102 | G5U C6A U7G G8U C9U | 0.013
103 | G5U C6G G8U C9U | 0.0807
104 | G5U G8U C9U A20G G21A | 0.241
105 | G5U G8U C9U A20G G21U | 0.195
106 | G5U G8U C9U A20G G21C | 0.187
107 | G5U G8U C9U A14U G15C | 0.0163
108 | G5U G8U C9U A14U G15U | 0.00524
109 | G5U G8U C9U A14U G15A | 0.00362
110 | G5U C6A U7A C9A U10A | 0.0813
111 | G5U C6G G8C C9U U10C | 1.09
112 | G5U C6U U7A C9A U10A | 0.0191
113 | G5U G8U C9U A23C C24U | 0.0326
114 | G5U G8U C9U A23C C24A | 0.231
115 | G5U G8U C9U A23C C24G | 0.632
116 | G5U C9A | 0.991
117 | G5U C9U | 0.393
118 | G5U C9G | 0.253
119 | G5U C6U | 0.0058
120 | G5U C6G | 0.00229

Row | Variant | exon inclusion enrichment index
121 | G5U C6G U7A C9A U10A | 0.147
122 | G5U G8U C9U A25U | 0.289
123 | G5U G8U C9U A25G | 0.618
124 | G5U G8U C9U A25C | 0.793
125 | G5U C6G U7G C9A | 0.0617
126 | G5U C6G U7C U10C | 2.34
127 | G5U G8U C9A U10A | 0.0322
128 | G5U G8U C9A U10C | 0.61
129 | G5U G8U C9A U10G | 0.0162
130 | G5U C6A U7A G8U C9U | 0.0678
131 | G5U C6A U7A G8U C9A | 0.0741
132 | G5U C6U U7C C9A U10C | 2.91
133 | G5U C6U U7G G8U C9U | 0.119
134 | G5U C6G U7A G8U C9A | 0.241
135 | G5U C6G U7A G8U C9U | 0.198
136 | G5U G8U C9U A31C | 0.202
137 | G5U G8U C9U A31G | 0.187
138 | G5U G8U C9U A31U | 0.15
139 | G5U C6G U7C C9A U10C | 2.41
140 | G5U C6U U7C G8U C9U | 0.154
141 | G5U C6U U7G C9A | 0.469
142 | G5U G8U C9U A30G A31U | 0.0253
143 | G5U G8U C9U A30G A31G | 0.0186
144 | G5U G8U C9U A30G A31C | 0.00346

Row | Variant | exon inclusion enrichment index
145 | G5U C6A G8U C9U | 0.0752
146 | G5U G8U C9U A20U G21C | 0.1
147 | G5U G8U C9U A20U G21A | 0.0475
148 | G5U G8U C9U A20U G21U | 0.0618
149 | G5U G8A C9A | 0.204
150 | G5U G8A C9U | 0.205
151 | G5U G8A C9G | 0.061
152 | G5U C6A U7C U10C | 3.2
153 | G5U G8U C9U A30G | 0.109
154 | G5U G8U C9U A30C | 0.172
155 | G5U G8U C9U A30U | 0.0559
156 | G5U G8U C9U A35C | 0.0257
157 | G5U G8U C9U A35U | 0.0145
158 | G5U G8U C9U A35G | 0.0347
159 | G5U G8U C9U A14G G15A | 0.0466
160 | G5U G8U C9U A14G G15U | 0.0063
161 | G5U G8U C9U A14G G15C | 0.0571
162 | G5U G8U C9U A30C A31U | 0.139
163 | G5U G8U C9U A30C A31G | 0.406
164 | G5U G8U C9U A30C A31C | 0.347
165 | G5U G8U C9U A23C | 0.1
166 | G5U G8U C9U A23G | 0.252
167 | G5U G8U C9U A23U | 0.0459
